Assay results: US9540424B2, “Serum albumin binding molecules” (BRISTOL-MYERS SQUIBB COMPANY, priority 2010, dated 2017)

Key:
[1] = system: HEK cells stably expressing human β-klotho; assay: HEK β-Klotho pERK 1/2 assay; format: cell-based; conditions: for Efficacy (%): % of His6-tagged FGF21 maximal activity; for activity in HEK β-klotho stable cells (specificity experiment): same dilutions as in parental HEK cells
Method: FGF21 induces ERK phosphorylation in the presence of β-klotho. Accordingly, the present HEK-β-klotho assay system was constructed to examine the functional activity of the FGF21-SABA fusions in vitro. Specifically, in vitro activity, potency (EC50) and efficacy (as a percentage of maximal activity observed from an FGF21 molecule that is not fused to a SABA), were determined for the SABA1-FGF21v1 (SEQ ID NO: 132) fusion protein, as measured in the HEK β-Klotho expressing stable cell pERK 1/2 assay using the non-fused His-tagged FGF21 (“FGFv1”; SEQ ID NO: 125) as a comparator.
A HEK cell line stably expressing human β-klotho was constructed. The human β-klotho construct encoded the full length protein under the control of a CMV promoter with a C-terminal FLAG tag. HEK 293 cells were transfected with the linearized cDNA using Lipofectamine 2000 (Invitrogen catalog #11668027) following the manufactures protocol using standard techniques. Positive clones were isolated after 14 days of selection in 600 ug/ml (Invitrogen catalog #10131) of geneticin in Dulbecco's Modified Eagle Medium with high glucose containing L-Glutamine, Hepes (Invitrogen catalog #12430054) and 10% FBS (HyClone catalog # SH30071). Positive stable clones were further characterized by Western Blot analysis and p-ERK activation by AlphaScreen (Perkin Elmer catalog # TGRES50K) analysis.
HEK cells stably expressing human β-klotho were plated at 20,000 cells/well in 96 well tissue culture plates in DMEM high glucose media (Gibco) containing 10% (v/v) FBS (Hyclone) and 600 μg/ml G418 (Gibco). The following day, the media was removed and replaced with DMEM high glucose media without serum and the cells were incubated overnight. The morning of the third day the serum free media was removed and the cells were incubated for a total of seven minutes with dilutions of the proteins made in PBS containing 3% (w/v) fatty acid free human serum albumin. Dilutions were tested in triplicate, one well on each of three plates. At the end of the seven minute incubation, the protein dilutions were removed and 100 μl of 1x AlphaScreen lysis buffer (Perkin-Elmer) was added per well and allowed to incubate with shaking for approximately 10-15 minutes. The plates containing the cellular lysates were frozen at −80° C. for at least 30 minutes or until ready to assay. Four μl from each well of thawed cell lysate was analyzed for pERK 1/2 using the Surefire AlphaScreen pERK 1/2 kit (Perkin Elmer) using 384 well white Proxiplates (Perkin Elmer) following the manufacturer's directions. Plates were incubated at room temperature for two hours in the dark and then read on an Envision 2103 Multiplate reader (Perkin Elmer). Data were analyzed using Graph Pad Prism software using a non-linear regression analysis.

[2] = system: parental HEK cells, which do not express β-klotho; assay: pERK 1/2 specificity assay in parental HEK cells; format: cell-based, human
Text: FGF1 was used as a positive control in those experiments.

diabetic ob/ob mice = assay: Plasma glucose lowering in diabetic ob/ob mice, 7 days daily s.c.; format: in vivo, mouse; conditions: day 7; for lowering of plasma glucose compared to the PBS vehicle control: SABA1-FGF21v1 1.0 mg/kg, His-tagged FGF21 0.3 mg/kg s.c. daily; for magnitude of glucose lowering: […] hours post dose
Method: (§1) Thus, monitoring plasma glucose levels in diabetic ob/ob mice represents one way that the functional activity of the FGF21-SABA fusion proteins can be assessed. Beginning at 8 weeks of age, diabetic ob/ob mice received daily subcutaneous doses for 7 days (n=8 per group). All protocols were approved by the BMS ACUC committee. Fed glucose levels were examined both 24 hr and 3 hr post-dose on day 7 beginning at 8:00 AM. His-tagged FGF21 and SABA1-FGF21v1 were formulated in PBS and dosed at 0.3 mg/kg, and 1.0 mg/kg. respectively.
(§2) To evaluate the efficacy of SABA1-FGF21v1 bound to human albumin, the fusion protein (1 mg/kg) was incubated with a molar excess of human serum albumin (6 mg/kg) and the mixture was injected in an additional group (q.d. s.c. for 7 days). Human serum albumin (6 mg/kg) was used as an additional control group.

[3] = Plasma exposure in the ob/ob mouse efficacy study; format: in vivo, ob/ob mice; conditions: His6-tagged FGF21 0.3 mg/kg, SABA1-FGF21v1 1 mg/kg, without HSA; for Plasma Concentration: 3 hours post dose; for Plasma Concentration (ng/ml): […] hours post dose
Method: as §1, §2
The exposure of SABA1-FGF21v1 is greater in the presence of human serum albumin than in its absence.
(§3) Various in vivo studies were conducted in mice and monkeys to characterize the pharmacokinetics of His-tagged FGF21 and SABA1-FGF21v1. An ELISA-based ligand binding assay was used to measure the His-tagged FGF21 and SABA1-FGF21v1 in all mouse and monkey plasma samples.

[4] = Pharmacokinetics of His-tagged FGF21 and SABA1-FGF21v1 in mice; format: in vivo, CD-1 mice; ob/ob mice; conditions: for steady-state volume of distribution (Vss) / terminal half-life (T1/2) / total body plasma clearance (CLTp): CD-1 mice, intravenous, His-tagged FGF21 1 mg/kg, SABA1-FGF21v1 1.6 mg/kg
Method: as §3
(§4) Following subcutaneous administration, His-tagged FGF21 was well absorbed.
(§5) Following subcutaneous administration, SABA1-FGF21v1 was well absorbed.
SABA1-FGF21v1 was also administered to ob/ob mice at 1 mg/kg subcutaneously after pre-mix with human serum albumin (6 mg/kg).

[5] = Pharmacokinetics of His-tagged FGF21 and SABA-FGF21 fusions in monkeys; format: in vivo, cynomolgus monkeys; conditions: for CL (total body plasma clearance, CLTp) / T½ (terminal half-life) / Vdss (steady-state volume of distribution, Vss) / absolute subcutaneous bioavailability / apparent subcutaneous terminal half-life (T1/2): monkeys; for CL (total body plasma clearance, CLTp) / T½ (terminal half-life) / Vdss (steady-state volume of distribution, Vss): intravenous, His-tagged FGF21 0.5 mg/kg, SABA1-FGF21v1 0.08 mg/kg
Method: as §3, §4, §5

[6] = cyno, SC, 0.08 mg/kg, N = 3, mean ± SD

Row | Molecule | Efficacy (%) ([1]; mean ± std. dev., N ≧4) | activity in HEK β-klotho stable cells (specificity experiment) [1] | stimulation of pERK 1/2 levels in parental HEK cells [2] | lowering of plasma glucose compared to the PBS vehicle control (diabetic ob/ob mice; 3 hours post dose) | Plasma Concentration [3] [ng/mL] | Plasma Concentration (ng/ml) [3] | steady-state volume of distribution (Vss) [4] [L/kg] | terminal half-life (T1/2) [4] [h] | total body plasma clearance (CLTp) [4] [mL/min/kg] | apparent subcutaneous terminal half-life (T1/2) ([4]; mice, subcutaneous) [h] | CL (total body plasma clearance, CLTp) [5] [mL/min/kg] | T½ (terminal half-life) [5] [h] | Vdss (steady-state volume of distribution, Vss) [5] [L/kg] | absolute subcutaneous bioavailability [5] [%] | apparent subcutaneous terminal half-life (T1/2) [5] [h] | other results
1 | His-tagged FGF21: non-fused His-tagged FGF21 (“FGFv1”; SEQ ID NO: 125) used as a comparator (protein, His6 tag) MHHHHHHPIPDSSPLLQFGGQVRQRYLYTDDAQQTEAHLEIREDGTVGGAADQSPESLLQLKALKPGVIQILGVKTSRFLCQRPDGALYGSLHFDPEACSFRELLLEDGYNVYQSEAHGLPLHLPGNKSPHRDPAPRGPARFLPLPGLPPALPEPPGILAPQPPDVGSSDPLSMVGPSQGRSPSYAS | 100 | showed activity | neither His-tagged FGF21 nor SABA1-FGF21v1 stimulated pERK 1/2 levels | comparable | 99 | <LLOQ | 0.27 | 0.5 | 12 | 0.6 | 6.4 | 1.9 | 1 | 65 | 4.3 | EC50 ([1]; pERK 1/2, in PBS with 3% human serum albumin, mean ± std. dev., N ≧4): 7 ± 4 nM; absolute subcutaneous bioavailability ([4]; mice, subcutaneous): ~100%
2 | SABA1-FGF21v1: SABA1-FGF21 fusion, SEQ ID NO: 132; 293 aa; DNA SEQ ID NO: 184 (protein) MGVSDVPRDLEVVAATPTSLLISWHSYYEQNSYYRITYGETGGNSPVQEFTVPYSQTTATISGLKPGVDYTITVYAVYGSKYYYPISINYRTEIEKPSQGSGSGSGSGSGSGSPIPDSSPLLQFGGQVRQRYLYTDDAQQTEAHLEIREDGTVGGAADQSPESLLQLKALKPGVIQILGVKTSRFLCQRPDGALYGSLHFDPEACSFRELLLEDGYNVYQSEAHGLPLHLPGNKSPHRDPAPRGPARFLPLPGLPPALPEPPGILAPQPPDVGSSDPLSMVGPSQGRSPSYAS | 62 | showed activity | neither His-tagged FGF21 nor SABA1-FGF21v1 stimulated pERK 1/2 levels | 29% | 1370 | <LLOQ | 0.12 | 1.9 | 2.9 | 1.9 | 0.012 | 97 | 0.08 | 68 | 67 | right shift of potency (EC50) relative to the His-tagged FGF21 [1]: approximately 15 fold; Efficacy (%) ([1]; mean ± std. dev., N ≧4, listed as SABAl-FGF21v1): 62 ± 9%; lowering of plasma glucose compared to the HSA control (diabetic ob/ob mice; 3 hours post dose, 1 mg/kg with human serum albumin 6 mg/kg, q.d. s.c.): 46%; magnitude of glucose lowering (diabetic ob/ob mice; 1.0 mg/kg s.c. daily, without HSA): 7%; magnitude of glucose lowering (diabetic ob/ob mice; 1 mg/kg with HSA 6 mg/kg): 41%; apparent subcutaneous terminal half-life (T1/2) ([4]; ob/ob mice, 1 mg/kg subcutaneously after pre-mix with human serum albumin (6 mg/kg)): 9 h; AUCtot ([5]; cyno, IV, 0.08 mg/kg, N = 2): 3.621 µM·h; CLTp ([5]; cyno, IV, 0.08 mg/kg, N = 2): 0.71 mL/h/kg; T½ ([5]; cyno, IV, 0.08 mg/kg, N = 2): 97 h; Vss ([5]; cyno, IV, 0.08 mg/kg, N = 2): 0.076 L/kg; F (%) ([5]; cyno, SC, 0.08 mg/kg): 68%; AUCtot [5, 6]: 2.454 ± 0.779 µM·h; Cmax [5, 6]: 22.4 ± 10.8 nM; Tmax [5, 6]: 13 ± 9 h
